Measurements as given in US20050054563A1 (Genentech, published 2005).

B1: decorin from bovine articular cartilage (Sigma) (other, UniProt P21793 31-360, looked up)
chain: DEASGIGPEEHFPEVPEIEPMGPVCPFRCQCHLRVVQCSDLGLEKVPKDLPPDTALLDLQNNKITEIKDGDFKNLKNLHTLILINNKISKISPGAFAPLVKLERLYLSKNQLKELPEKMPKTLQELRVHENEITKVRKSVFNGLNQMIVVELGTNPLKSSGIENGAFQGMKKLSYIRIADTNITTIPQGLPPSLTELHLDGNKITKVDAASLKGLNNLAKLGLSFNSISAVDNGSLANTPHLRELHLNNNKLVKVPGGLADHKYIQVVYLHNNNISAIGSNDFCPPGYNTKKASYSGVSLFSNPVQYWEIQPSTFRCVYVRAAVQLGNYK
modifications: proteoglycan; dermatan sulfate glycosaminoglycan chain on the core protein (site not stated for this preparation)
B2: biglycan from bovine articular cartilage (Sigma) (other, UniProt P21809 38-369, looked up)
chain: DEEASGAETTSGIPDLDSLPPTYSAMCPFGCHCHLRVVQCSDLGLKAVPKEISPDTTLLDLQNNDISELRKDDFKGLQHLYALVLVNNKISKIHEKAFSPLRKLQKLYISKNHLVEIPPNLPSSLVELRIHDNRIRKVPKGVFSGLRNMNCIEMGGNPLENSGFEPGAFDGLKLNYLRISEAKLTGIPKDLPETLNELHLDHNKIQAIELEDLLRYSKLYRLGLGHNQIRMIENGSLSFLPTLRELHLDNNKLSRVPAGLPDLKLLQVVYLHTNNITKVGVNDFCPVGFGVKRAYYNGISLFNNPVPYWEVQPATFRCVTDRLAIQFGNYKK
modifications: proteoglycan; glycosaminoglycan chains on the core protein (sites not stated for this preparation)

Experiments:
[1] = target: T1, mouse WISP-1-IgG (chimeric recombinant mouse WISP-1 bearing a human immunoglobulin Fc fragment tag) (mouse); assay: competition solid phase assay: 0.25 nM WISP-1-IgG on coated human skin fibroblast conditioned media, soluble decorin varied
T1 construct: also called mWISP-1-IgG; WISP-1-Fc
T1 sequence (chain, as listed by the source mutant limits assumed): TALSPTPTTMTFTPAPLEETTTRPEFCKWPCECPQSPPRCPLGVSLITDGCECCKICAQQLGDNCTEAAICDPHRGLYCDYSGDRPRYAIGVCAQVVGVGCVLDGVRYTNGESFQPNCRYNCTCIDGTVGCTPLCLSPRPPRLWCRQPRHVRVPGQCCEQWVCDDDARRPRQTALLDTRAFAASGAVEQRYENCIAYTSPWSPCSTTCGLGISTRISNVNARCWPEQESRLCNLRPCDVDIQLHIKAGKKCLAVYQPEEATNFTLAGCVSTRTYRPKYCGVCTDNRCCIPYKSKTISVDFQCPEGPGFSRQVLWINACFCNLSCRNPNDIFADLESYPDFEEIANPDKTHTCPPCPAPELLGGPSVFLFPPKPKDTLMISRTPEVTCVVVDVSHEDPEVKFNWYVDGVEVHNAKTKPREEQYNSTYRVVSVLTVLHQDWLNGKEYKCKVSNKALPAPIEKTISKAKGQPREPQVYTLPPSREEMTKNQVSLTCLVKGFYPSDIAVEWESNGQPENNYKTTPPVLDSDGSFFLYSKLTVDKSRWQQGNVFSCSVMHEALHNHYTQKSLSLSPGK
Experimental: (§1) Decorin and biglycan were coated to microtiter wells overnight. Non-specific binding sites were saturated and 0.25 nM of mWISP-1-IgG was incubated for 2 hours. The wells were washed and incubated with horseradish peroxidase conjugated anti-human IgG Fc′ (2 μg/ml) for 1 hour. After 6 washes with PBS containing 0.05% Tween-20, a signal was developed by the incubation of a chromogenic substrate. The color development was stopped by the addition of 1 M phosphoric acid and the O.D. at 450 nm was measured.
(§2) Fifty microliters of human skin fibroblast conditioned media were coated in wells of microtiter plates. Non-specific binding sites were saturated and 0.25 nM of WISP-1-IgG was incubated in the presence of various concentrations of decorin (filled circles) or biglycan (empty circles) (FIG. 5B) for 2 hours. The binding of mWISP-1-IgG was evaluated as described above.

[2] = target: T1, mouse WISP-1-IgG (chimeric recombinant …); assay: competition solid phase assay: 0.25 nM WISP-1-IgG on coated human skin fibroblast conditioned media, soluble biglycan varied
Experimental: as §1, §2

| Binder | IC50 [1] [µg/mL] | IC50 [2] [µg/mL] |
| --- | --- | --- |
| B1 | 70 | – |
| B2 | – | 105 |
